Test results reported in IntAct's records for PubMed 35512704.

B1: Speckle-type POZ protein (Homo sapiens), O43791 (parent)
chain: MSRVPSPPPPAEMSSGPVAESWCYTQIKVVKFSYMWTINNFSFCREEMGEVIKSSTFSSGANDKLKWCLRVNPKGLDEESKDYLSLYLLLVSCPKSEVRAKFKFSILNAKGEETKAMESQRAYRFVQGKDWGFKKFIRRDFLLDEANGLLPDDKLTLFCEVSVVQDSVNISGQNTMNMVKVPECRLADELGGLWENSRFTDCCLCVAGQEFQAHKAILAARSPVFSAMFEHEMEESKKNRVEINDVEPEVFKEMMCFIYTGKAPNLDKMADDLLAAADKYALERLKVMCEDALCSNLSVENAAEILILADLHSADQLKTQAVDFINYHASDVLETSGWKSMVVSHPHLVAEAYRSLASAQCPFLGPPRKRLKQS
partner: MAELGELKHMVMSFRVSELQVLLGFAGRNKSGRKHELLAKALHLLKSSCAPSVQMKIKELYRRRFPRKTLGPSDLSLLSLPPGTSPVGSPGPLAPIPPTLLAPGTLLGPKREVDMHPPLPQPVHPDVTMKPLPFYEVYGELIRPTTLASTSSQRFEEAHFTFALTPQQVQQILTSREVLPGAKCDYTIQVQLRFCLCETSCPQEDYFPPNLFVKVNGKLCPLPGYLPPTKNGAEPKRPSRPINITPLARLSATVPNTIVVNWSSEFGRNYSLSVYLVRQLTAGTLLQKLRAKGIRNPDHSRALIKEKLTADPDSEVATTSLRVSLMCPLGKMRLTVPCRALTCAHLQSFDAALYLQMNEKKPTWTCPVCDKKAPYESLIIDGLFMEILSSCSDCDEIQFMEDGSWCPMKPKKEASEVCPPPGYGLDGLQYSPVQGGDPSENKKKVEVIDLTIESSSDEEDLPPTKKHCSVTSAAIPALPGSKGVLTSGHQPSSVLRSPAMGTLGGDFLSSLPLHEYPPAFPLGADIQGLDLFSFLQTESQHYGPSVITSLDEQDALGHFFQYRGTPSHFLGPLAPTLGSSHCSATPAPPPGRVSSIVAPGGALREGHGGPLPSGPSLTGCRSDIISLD
B2: Speckle-type POZ protein (Homo sapiens), O43791 (parent)
chain: B1 chain
partner: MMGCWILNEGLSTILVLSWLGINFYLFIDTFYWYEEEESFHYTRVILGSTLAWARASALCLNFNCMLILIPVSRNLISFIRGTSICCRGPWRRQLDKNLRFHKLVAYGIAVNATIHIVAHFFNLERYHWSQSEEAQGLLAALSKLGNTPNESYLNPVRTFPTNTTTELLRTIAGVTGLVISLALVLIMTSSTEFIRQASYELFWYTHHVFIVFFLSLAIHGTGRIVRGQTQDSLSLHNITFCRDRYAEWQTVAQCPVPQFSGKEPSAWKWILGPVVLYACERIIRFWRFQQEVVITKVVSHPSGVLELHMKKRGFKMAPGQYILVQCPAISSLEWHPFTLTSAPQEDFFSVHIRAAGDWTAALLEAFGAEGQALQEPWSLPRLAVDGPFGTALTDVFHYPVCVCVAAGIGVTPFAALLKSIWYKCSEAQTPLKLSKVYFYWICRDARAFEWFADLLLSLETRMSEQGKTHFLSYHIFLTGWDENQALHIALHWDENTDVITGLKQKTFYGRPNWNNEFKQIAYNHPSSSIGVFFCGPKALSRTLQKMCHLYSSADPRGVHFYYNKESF
B3: Speckle-type POZ protein (Homo sapiens), O43791 (parent)
chain: B1 chain
partner: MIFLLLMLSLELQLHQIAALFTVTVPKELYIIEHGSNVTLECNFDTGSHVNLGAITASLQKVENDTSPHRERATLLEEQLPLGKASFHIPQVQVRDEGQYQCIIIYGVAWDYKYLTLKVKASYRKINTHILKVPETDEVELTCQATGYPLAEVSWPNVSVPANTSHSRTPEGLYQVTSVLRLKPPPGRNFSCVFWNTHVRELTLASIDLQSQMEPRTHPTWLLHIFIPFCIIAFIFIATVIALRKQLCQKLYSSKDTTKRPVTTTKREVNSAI

Variants of: B1
Details: with pias3_human PIAS3, Q9Y6X2

effect of a mutation on the interaction	Variant
with no effect	MSRVPSPPPPAEMSSGPVAESWCYTQIKVVKFSYMWTINNFSFCREEMGEVIKSSTFSSGANDKLKWCLRVNPKGLDEESKDYLSLYLLLVSCPKSEVRAKCKFSILNAKGEETKAMESQRAYRFVQGKDWGFKKFIRRDFLLDEANGLLPDDKLTLFCEVSVVQDSVNISGQNTMNMVKVPECRLADELGGLWENSRFTDCCLCVAGQEFQAHKAILAARSPVFSAMFEHEMEESKKNRVEINDVEPEVFKEMMCFIYTGKAPNLDKMADDLLAAADKYALERLKVMCEDALCSNLSVENAAEILILADLHSADQLKTQAVDFINYHASDVLETSGWKSMVVSHPHLVAEAYRSLASAQCPFLGPPRKRLKQS [F102C]

Variants of: B2
Details: with nox3_human NOX3, Q9HBY0

effect of a mutation on the interaction	Variant
with no effect	MSRVPSPPPPAEMSSGPVAESWCYTQIKVVKFSYMWTINNFSFCREEMGEVIKSSTFSSGANDKLKWCLRVNPKGLDEESKDYLSLYLLLVSCPKSEVRAKFKFSILNAKGEETKAMESQRAYRFVQGKDWGLKKFIRRDFLLDEANGLLPDDKLTLFCEVSVVQDSVNISGQNTMNMVKVPECRLADELGGLWENSRFTDCCLCVAGQEFQAHKAILAARSPVFSAMFEHEMEESKKNRVEINDVEPEVFKEMMCFIYTGKAPNLDKMADDLLAAADKYALERLKVMCEDALCSNLSVENAAEILILADLHSADQLKTQAVDFINYHASDVLETSGWKSMVVSHPHLVAEAYRSLASAQCPFLGPPRKRLKQS [F133L]

Variants of: B2
Details: with nox3_human NOX3, Q9HBY0
Remark: another data set of the same source

effect of a mutation on the interaction	Variant
with no effect	MSRVPSPPPPAEMSSGPVAESWCYTQIKVVKFSYMWTINNFSFCREEMGEVIKSSTFSSGANDKLKWCLRVNPKGLDEESKDYLSLYLLLVSCPKSEVRAKFKFSILNAKGEETKAMESQRAYRFVQGKDWGVKKFIRRDFLLDEANGLLPDDKLTLFCEVSVVQDSVNISGQNTMNMVKVPECRLADELGGLWENSRFTDCCLCVAGQEFQAHKAILAARSPVFSAMFEHEMEESKKNRVEINDVEPEVFKEMMCFIYTGKAPNLDKMADDLLAAADKYALERLKVMCEDALCSNLSVENAAEILILADLHSADQLKTQAVDFINYHASDVLETSGWKSMVVSHPHLVAEAYRSLASAQCPFLGPPRKRLKQS [F133V]

Variants of: B2
Details: with nox3_human NOX3, Q9HBY0
Remark: another data set of the same source

effect of a mutation on the interaction	Variant
with no effect	MSRVPSPPPPAEMSSGPVAESWCYTQIKVVKFSYMWTINNFSFCREEMGEVIKSSTFSSGANDKLKWCLRVNPKGLDEESKDYLSLYLLLVSCPKSEVRAKCKFSILNAKGEETKAMESQRAYRFVQGKDWGFKKFIRRDFLLDEANGLLPDDKLTLFCEVSVVQDSVNISGQNTMNMVKVPECRLADELGGLWENSRFTDCCLCVAGQEFQAHKAILAARSPVFSAMFEHEMEESKKNRVEINDVEPEVFKEMMCFIYTGKAPNLDKMADDLLAAADKYALERLKVMCEDALCSNLSVENAAEILILADLHSADQLKTQAVDFINYHASDVLETSGWKSMVVSHPHLVAEAYRSLASAQCPFLGPPRKRLKQS [F102C]

Variants of: B2
Details: with nox3_human NOX3, Q9HBY0
Remark: another data set of the same source

effect of a mutation on the interaction	Variant
with no effect	MSRVPSPPPPAEMSSGPVAESWCYTQIKVVKFSYMWTINNFSFCREEMGEVIKSSTFSSGANDKLKWCLRVNPKGLDEESKDYLSLCLLLVSCPKSEVRAKFKFSILNAKGEETKAMESQRAYRFVQGKDWGFKKFIRRDFLLDEANGLLPDDKLTLFCEVSVVQDSVNISGQNTMNMVKVPECRLADELGGLWENSRFTDCCLCVAGQEFQAHKAILAARSPVFSAMFEHEMEESKKNRVEINDVEPEVFKEMMCFIYTGKAPNLDKMADDLLAAADKYALERLKVMCEDALCSNLSVENAAEILILADLHSADQLKTQAVDFINYHASDVLETSGWKSMVVSHPHLVAEAYRSLASAQCPFLGPPRKRLKQS [Y87C]

Variants of: B3
Details: with pd1l2_human PDCD1LG2, Q9BQ51

effect of a mutation on the interaction	Variant
with no effect	MSRVPSPPPPAEMSSGPVAESWCYTQIKVVKFSYMWTINNFSFCREEMGEVIKSSTFSSGANDKLKWCLRVNPKGLDEESKDYLSLCLLLVSCPKSEVRAKFKFSILNAKGEETKAMESQRAYRFVQGKDWGFKKFIRRDFLLDEANGLLPDDKLTLFCEVSVVQDSVNISGQNTMNMVKVPECRLADELGGLWENSRFTDCCLCVAGQEFQAHKAILAARSPVFSAMFEHEMEESKKNRVEINDVEPEVFKEMMCFIYTGKAPNLDKMADDLLAAADKYALERLKVMCEDALCSNLSVENAAEILILADLHSADQLKTQAVDFINYHASDVLETSGWKSMVVSHPHLVAEAYRSLASAQCPFLGPPRKRLKQS [Y87C]

Variants of: B3
Details: with pd1l2_human PDCD1LG2, Q9BQ51
Remark: another data set of the same source

effect of a mutation on the interaction	Variant
with no effect	MSRVPSPPPPAEMSSGPVAESWCYTQIKVVKFSYMWTINNFSFCREEMGEVIKSSTFSSGANDKLKWCLRVNPKGLDEESKDYLSLYLLLVSCPKSEVRAKCKFSILNAKGEETKAMESQRAYRFVQGKDWGFKKFIRRDFLLDEANGLLPDDKLTLFCEVSVVQDSVNISGQNTMNMVKVPECRLADELGGLWENSRFTDCCLCVAGQEFQAHKAILAARSPVFSAMFEHEMEESKKNRVEINDVEPEVFKEMMCFIYTGKAPNLDKMADDLLAAADKYALERLKVMCEDALCSNLSVENAAEILILADLHSADQLKTQAVDFINYHASDVLETSGWKSMVVSHPHLVAEAYRSLASAQCPFLGPPRKRLKQS [F102C]

Variants of: B3
Details: with pd1l2_human PDCD1LG2, Q9BQ51
Remark: another data set of the same source

effect of a mutation on the interaction	Variant
with no effect	MSRVPSPPPPAEMSSGPVAESWCYTQIKVVKFSYMWTINNFSFCREEMGEVIKSSTFSSGANDKLKWCLRVNPKGLDEESKDYLSLYLLLVSCPKSEVRAKFKFSILNAKGEETKAMESQRAYRFVQGKDWGVKKFIRRDFLLDEANGLLPDDKLTLFCEVSVVQDSVNISGQNTMNMVKVPECRLADELGGLWENSRFTDCCLCVAGQEFQAHKAILAARSPVFSAMFEHEMEESKKNRVEINDVEPEVFKEMMCFIYTGKAPNLDKMADDLLAAADKYALERLKVMCEDALCSNLSVENAAEILILADLHSADQLKTQAVDFINYHASDVLETSGWKSMVVSHPHLVAEAYRSLASAQCPFLGPPRKRLKQS [F133V]
